What is called stoichiometry N is the number of molecules, sites or subunits per partner or assembly.

Series [1] concerns the target T1, N-terminally FLAG tagged Tgl2 (S. cerevisiae, UniProt P54857 1-326).
T1 sequence (looked up): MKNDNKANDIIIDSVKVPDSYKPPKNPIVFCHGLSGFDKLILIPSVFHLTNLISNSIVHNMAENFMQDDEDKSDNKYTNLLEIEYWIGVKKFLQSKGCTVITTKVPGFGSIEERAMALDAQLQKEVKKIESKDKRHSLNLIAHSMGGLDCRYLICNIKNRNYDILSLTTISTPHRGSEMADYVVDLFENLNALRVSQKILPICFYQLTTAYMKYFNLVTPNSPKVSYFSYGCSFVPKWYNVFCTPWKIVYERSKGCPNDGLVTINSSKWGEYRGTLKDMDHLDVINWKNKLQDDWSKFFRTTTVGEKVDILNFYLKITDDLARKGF
The experiment in a line: native gel or EMSA.

Series [2] concerns the molecule itself. Description: non-reducing SDS-PAGE with immunodecoration.

B1: N-terminally HA tagged Tgl2 (natural protein, S. cerevisiae, UniProt P54857 1-326, looked up)
chain: MKNDNKANDIIIDSVKVPDSYKPPKNPIVFCHGLSGFDKLILIPSVFHLTNLISNSIVHNMAENFMQDDEDKSDNKYTNLLEIEYWIGVKKFLQSKGCTVITTKVPGFGSIEERAMALDAQLQKEVKKIESKDKRHSLNLIAHSMGGLDCRYLICNIKNRNYDILSLTTISTPHRGSEMADYVVDLFENLNALRVSQKILPICFYQLTTAYMKYFNLVTPNSPKVSYFSYGCSFVPKWYNVFCTPWKIVYERSKGCPNDGLVTINSSKWGEYRGTLKDMDHLDVINWKNKLQDDWSKFFRTTTVGEKVDILNFYLKITDDLARKGF
With B1, the entries for the “stoichiometry N” value in series [1] and in series [2] were no less than 2 and 2, respectively.

Values taken from article doi:10.1101/2024.05.08.593122 (bioRxiv, 2024).
